Data taken from patent publication US20190127451A1.

Target: alternative-spliced domain A1 of human Tenascin C (human) (UniProt P24821)
Assay: SPR (BIAcore), antibody over hTnC A1 on CM5 chip, fitted 50 nM curves

Sequence of UniProt P24821 (P24821 1072-1162): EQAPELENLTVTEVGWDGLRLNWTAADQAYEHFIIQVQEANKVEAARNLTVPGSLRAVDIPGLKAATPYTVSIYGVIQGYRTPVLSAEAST

B1: IgG(F16)-3S-N88Q (antibody, V domains shown)
VH: EVQLLESGGGLVQPGGSLRLSCAASGFTFSRYGMSWVRQAPGKGLEWVSAISGSGGSTYYADSVKGRFTISRDNSKNTLYLQMNSLRAEDTAVYYCAKAHNAFDYWGQGTLVTVSS
VL: SSELTQDPAVSVALGQTVRITCQGDSLRSYYASWYQQKPGQAPVLVIYGKNNRPSGIPDRFSGSSSGNTASLTITGAQAEDEADYYCQSSVYTMPPVVFGGGTKLTVLG
modifications: glycosylated Heavy Chain (site not given)
B1 was tested, and the fold lower apparent KD than wild-type IgG(F16)-3S was 4 to 8 fold.
